Measured values taken from patent US20230212319A1, “NOVEL ANTIGEN BINDING DOMAINS AND SYNTHETIC ANTIGEN RECEPTORS INCORPORATING THE SAME” (University of Southern California, priority 2020, published 2023).

B1: 22183 (protein)
chain: MALPVTALLLPLALLLHAARPACQVQLQESGAGLLKPSETLSLTCAVYGGSFSAYNWNWIRQPPGKGLEWIGEINHRGDTAYNPSLKSRVTISVDTSKNQFSLNLTSVTAADTAVYYCAARGYSYGWPPGYISDAFDIWGQGTQVTVSSGTGGGGSGGGGSGGGGSEFDIQMTQSPSSLSASVGDRVTITCKASDHINNWLAWYQQKPGQAPKLLIYGATTLETGVPSRFSGSGSGTDYTLTISSLQPEDFATYYCQQSWNTPWTFGQGTKLEIKRLEDLKNVFPPEVAVFEPSEAEISHTQKATLVCLATGFYPDHVELSWWVNGKEVHSGVCTDPQPLKEQPALNDSRYCLSSRLRVSATFWQNPRNHFRCQVQFYGLSENDEWTQDRAKPVTQIVSAEAWGRADCGFTSESYQQGVLSATILYEILLGKATLYAVLVSALVLMAMVKRKDSRGRAKRSGSGATNFSLLKQAGDVEENPGPTSMDWIWRILFLVGAATGAHSFEQVQLQQPGAELVKPGASVKMSCKASGYAFSSYWINWMKQKPGQGLEWIGQIYPGDGDTNYNGKFKGRATLTADTSSSTAYMQLSSLTSEDSAVYFCARSITTVVGCAMDYWGQGTSVTVSSTRIQNPDPAVYQLRDSKSSDKSVCLFTDFDSQTNVSQSKDSDVYITDKCVLDMRSMDFKSNSAVAWSNKSDFACANAFNNSIIPEDTFFPSPESSCDVKLVEKSFETDTNLNFQNLSVIGFRILLLKVAGFNLLMTLRLWSSRAKRSGSGVKQTLNFDLLKLAGDVESNPGPSRGHMTEYKPTVRLATRDDVPRAVRTLAAAFADYPATRHTVDPDRHIERVTELQELFLTRVGLDIGKVWVADDGAAVAVWTTPESVEAGAVFAEIGPRMAELSGSRLAAQQQMEGLLAPHRPKEPAWFLATVGVSPDHQGKGLGSAVVLPGVEAAERAGVPAFLETSAPRNLPFYERLGFTVTADVEVPEGPRTWCMTRKPGA
B2: 22194 (protein)
chain: MALPVTALLLPLALLLHAARPQLQLQESGPGLVKPSETLSLTCTVSGDSISSGDYYWGWIRQPPGKGLEWIGHIYYSGVTYYNPSLKSRVTISVDTSRNQFSLKLSSVTAADTAVYYCTREDSSNWRSRGQGTLVTVSSLEGQPKANPTVTLFPPSSEELQANKATLVCLISDFYPGAVTVAWKADGSPVKAGVETTKPSKQSNNKYAASSYLSLTPEQWKSHRSYSCQVTHEGSTVEKTVAPTECSPIKTDVITMDPKDNCSKDANDTLLLQLTNTSAYYMYLLLLLKSVVYFAIITCCLLRRTAFCCNGEKSRAKRSGSGATNFSLLKQAGDVEENPGPTSMDWIWRILFLVGAATGAHSFEYAKEMRNAYWEIALLPNLTNQQKRAPIRKLYDDPSQSSELLSEAKKLNDSQTRASTKGPSVFPLAPSSKSTSGGTAALGCLVKDYFPEPVTVSWNSGALTSGVHTFPAVLQSSGLYSLSSVVTVPSSSLGTQTYICNVNHKPSNTKVDKRVEPKSCEVKTDSTDHVKPKETENTKQPSKSCHKPKAIVHTEKVNMMSLTVLGLRMLFAKTVAVNFLLTAKLFFLRAKRSGSGVKQTLNFDLLKLAGDVESNPGPSRGHMTEYKPTVRLATRDDVPRAVRTLAAAFADYPATRHTVDPDRHIERVTELQELFLTRVGLDIGKVWVADDGAAVAVWTTPESVEAGAVFAEIGPRMAELSGSRLAAQQQMEGLLAPHRPKEPAWFLATVGVSPDHQGKGLGSAVVLPGVEAAERAGVPAFLETSAPRNLPFYERLGFTVTADVEVPEGPRTWCMTRKPGA
B3: 22218 (protein)
chain: MALPVTALLLPLALLLHAARPACQDKLTQWPKWLEGTGGGGSGGGGSGGGGSEFDIQMTQSPSSLSASVGDRVTITCKASDHINNWLAWYQQKPGQAPKLLIYGATTLETGVPSRFSGSGSGTDYTLTISSLQPEDFATYYCQQSWNTPWTFGQGTKLEIKRLEDLKNVFPPEVAVFEPSKAEIAHTQKATLVCLATGFYPDHVELSWWVNGKEVHSGVCTDPQPLKEQPALNDSRYCLSSRLRVSATFWQNPRNHFRCQVQFYGLSENDEWTQDRAKPVTQIVSAEAWGRADCGITSASYHQGVLSATILYEILLGKATLYAVLVSALVLMAMVKRKDSRGRAKRSGSGATNFSLLKQAGDVEENPGPTSATMDWIWRILFLVGAATGAHSGPQVQLQESGGGLAQAGGSLRLSCAASGRTFSMGWFRQAPGKEREFVAAITYSGGSPYYASSVRGRFTISRDNAKNTVYLQMNSLKPEDTAVYYCAANPTYGSDWNAENWGQGTQVTVSSGSGGGGSGGGGSGGGGSFEQVQLQQPGAELVKPGASVKMSCKASGYAFSSYWINWMKQKPGQGLEWIGQIYPGDGDTNYNGKFKGRATLTADTSSSTAYMQLSSLTSEDSAVYFCARSITTVVGCAMDYWGQGTSVTVSSTRIQNPDPAVYQLRDSKSSDKSVCLFTDFDSQTNVSQSKDSDVYITDKCVLDMRSMDFKSNSAVAWSNKSDFACANAFNNSIIPEDTFFPSSDVPCDVKLVEKSFETDTNLNFQNLSVIGFRILLLKVAGFNLLMTLRLWSSRAKRSGSGVKQTLNFDLLKLAGDVESNPGPSRGHMTEYKPTVRLATRDDVPRAVRTLAAAFADYPATRHTVDPDRHIERVTELQELFLTRVGLDIGKVWVADDGAAVAVWTTPESVEAGAVFAEIGPRMAELSGSRLAAQQQMEGLLAPHRPKEPAWFLATVGVSPDHQGKGLGSAVVLPGVEAAERAGVPAFLETSAPRNLPFYERLGFTVTADVEVPEGPRTWCMTRKPGA
B4: 22219 (protein)
chain: MALPVTALLLPLALLLHAARPDIQMTQSPSSLSASVGDRVTITCKASDHINNWLAWYQQKPGQAPKLLIYGATTLETGVPSRFSGSGSGTDYTLTISSLQPEDFATYYCQQSWNTPWTFGQGTKLEIKRLEDLKNVFPPEVAVFEPSEAEISHTQKATLVCLATGFYPDHVELSWWVNGKEVHSGVCTDPQPLKEQPALNDSRYCLSSRLRVSATFWQNPRNHFRCQVQFYGLSENDEWTQDRAKPVTQIVSAEAWGRADCGFTSESYQQGVLSATILYEILLGKATLYAVLVSALVLMAMVKRKDSRGRAKRSGSGATNFSLLKQAGDVEENPGPTSATMDWIWRILFLVGAATGAHSGPSACPYSNPSLCSGSGGGGSGGGGSGGGGSFEQVQLQQPGAELVKPGASVKMSCKASGYAFSSYWINWMKQKPGQGLEWIGQIYPGDGDTNYNGKFKGRATLTADTSSSTAYMQLSSLTSEDSAVYFCARSITTVVGCAMDYWGQGTSVTVSSTRIQNPDPAVYQLRDSKSSDKSVCLFTDFDSQTNVSQSKDSDVYITDKCVLDMRSMDFKSNSAVAWSNKSDFACANAFNNSIIPEDTFFPSPESSCDVKLVEKSFETDTNLNFQNLSVIGFRILLLKVAGFNLLMTLRLWSSRAKRSGSGVKQTLNFDLLKLAGDVESNPGPSRGHMTEYKPTVRLATRDDVPRAVRTLAAAFADYPATRHTVDPDRHIERVTELQELFLTRVGLDIGKVWVADDGAAVAVWTTPESVEAGAVFAEIGPRMAELSGSRLAAQQQMEGLLAPHRPKEPAWFLATVGVSPDHQGKGLGSAVVLPGVEAAERAGVPAFLETSAPRNLPFYERLGFTVTADVEVPEGPRTWCMTRKPGA

What follows are molecules tested on RAJI cells (assay: JNG assay, co-culture with RAJI cells). Settings: JNG cells expressing construct, co-culture with Raji.
Type: cell-based
How it was run: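 Jurkat-NFAT-GFP (JNG) cells stably expressing SAR constructs via lentiviral transduction and puromycin/blasticidin selection were cocultured with target cells at E:T ~1:2 for ~4–18 h. NFAT-driven GFP was measured by FACS versus parental JNG cells; scores +/- to 5+ denote ~5–50% GFP-positive cells.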
In the case of B1, the “NFAT-GFP ASSAY: Raji” value is reported as 5+ (refer to approximately 5%, 10%, 20%, 30%, 40% and 50% GFP positive cells).
With B2 the “NFAT-GFP ASSAY: Raji” value was 4+ (refer to approximately 5%, 10%, 20%, 30%, 40% and 50% GFP positive cells).
With B3 the “NFAT-GFP ASSAY: Raji” value was “Raji (3+) (refer to approximately 5%, 10%, 20%, 30%, 40% and 50% GFP positive cells)”.
For B4, the “NFAT-GFP ASSAY: Raji” value was “Raji (+/-) (refer to approximately 5%, 10%, 20%, 30%, 40% and 50% GFP positive cells)”.
